Test results published in patent US8216580B2, “Sulfatases and methods of use thereof” (The Regents of the University of California, priority 2000, dated 2012).

Assays:
[1] = comparison enzymes; cited from earlier work
[2] = Arylsulfatase activity assay with 4-MUS substrate; format: biochemical; conditions: 1 milliunit, 24 hr incubation
Protocol: The 100-fold concentrated conditioned medium (CM) derived from each transfection of CHO cells as described above was dialyzed into 50 mM HEPES, pH 8.0. The His-tagged fusion proteins were bound to a Ni-NTA resin (QIAGEN) by rotation at 4° C. over night, then washed with 50 mM HEPES (pH 8.0), 3 times. 250 mM imidazole in 50 mM HEPES, pH 8.0 was used to elute the His-tagged fusion proteins from Ni-NTA. The resins with boud material or the eluates were mixed with 10 mM 4-methylumbelliferyl-sulfate (4-MUS; a substrate for sulfatases), and 10 mM lead acetate, in a total volume of 100 μl. The reaction mixtures were incubated at 37° C. for various periods of time. Reactions were terminated by the addition of 100 μl of 0.5 M Na2CO3/NaHCO3, pH 10.7 to 20 μl of the reaction mixture. The fluorescence of 4-methylumbelliferone was measured on a Multi-Well Plate Reader CytoFluorII (PerSeptive Biosystems). The fluorescence was determined at an excitation wavelength of 360 nm and emission wavelength of 460 nm. A substrate dose response curve was performed over the concentration range of 1 to 10 mM 4-MUS.
The synthetic fluorogenic compound 4-methylumbelliferyl sulfate (4-MUS) serves as a substrate for most sulfatases, both in the lysosomal and non-lysosomal classes. CHO cells were transfected with a cDNA for HSulf-1 or HSulf-2 or a vector control. Conditioned medium was collected and incubated with nickel resin (Ni-NTA) to bind the His-tagged recombinant proteins. The bead-bound material was assayed for activity on 4-MUS. For both enzymes, hydrolysis depended on time of reaction (FIG. 15A), concentration of substrate (FIG. 15B), and amount of CM (FIG. 15C). From the substrate dose-response curves of FIG. 15B and based on estimates of Sulf protein levels in CM, we approximated Vmax for the two Sulfs to be in the range of 1000-2000 nmol per min per mg of Sulf protein. Human glucosamine-6-sulfatase has a considerably lower Vmax against 4-MUS ([…]) whereas the Vmax of human N-acetylgalactosamine-4-sulfatase (arylsulfatase B) is much higher (48000).
HSulf-1, HSulf-2 or their mutated forms (HSulf-1 ΔCC and HSulf-2 ΔCC) was purified from the conditioned medium of transfected CHO cells by binding to Ni-NTA beads. A) The bead-bound material was tested for arylsulfatase activity as a function of time against 10 mM 4-MUS substrate at pH 8. The “no-enzyme” control was based on testing conditioned medium from vector-control transfected CHO cells. No activity was detected in the absence of added substrate (not shown). […] The activity of each Sulf was determined relative to that of beads exposed to an equivalent volume of vector-control conditioned medium. The activity of HG6S was determined (24 hr incubation) relative to that of the buffer. […]

human N-acetylgalactosamine-4-sulfatase: human N-acetylgalactosamine-4-sulfatase (arylsulfatase B), comparison enzyme [reference compound]
Vmax against 4-MUS [1]: 48000 nmol/min/mg

B1: Human glucosamine-6-sulfatase: human lysosomal glucosamine-6-sulfatase, purchased from Glyko Inc. (protein, UniProt P15586 37-552, looked up)
N-acetylglucosamine-6-sulfatas …: VFGVAAGTRRPNVVLLLTDDQDEVLGGMTPLKKTKALIGEMGMTFSSAYVPSALCCPSRASILTGKYPHNHHVVNNTLEGNCSSKSWQKIQEPNTFPAILRSMCGYQTFFAGKYLNEYGAPDAGGLEHVPLGWSYWYALEKNSKYYNYTLSINGKARKHGENYSVDYLTDVLANVSLDFLDYKSNFEPFFMMIATPAPHSPWTAAPQYQKAFQNVFAPRNKNFNIHGTNKHWLIRQAKTPMTNSSIQFLDNAFRKRWQTLLSVDDLVEKLVKRLEFTGELNNTYIFYTSDNGYHTGQFSLPIDKRQLYEFDIKVPLLVRGPGIKPNQTSKMLVANIDLGPTILDIAGYDLNKTQMDGMSLLPILRGASNLTWRSDVLVEYQGEGRNVTDPTCPSLSPGVSQCFPDCVCEDAYNNTYACVRTMSALWNLQYCEFDDQEVFVEVYNLTADPDQITNIAKTIDPELLGKMNYRLMMLQSCSGPTCRTPGVFDPGYRFDPRLMFSNRGSVRTRRFSKHLL
arylsulfatase activity at pH 5 ([2]; pH 5): measurable activity
arylsulfatase activity at pH 8 ([2]; pH 8): none
Vmax against 4-MUS [1]: 100 nmol/min/mg
